Test results published in patent publication US8318473B2, “Biofuel production” (Bio Architecture Lab, Inc., priority 2007, dated 2012).

Key:
[1] = Kinetic testing of oxidation and reduction reactions on various substrates using 2ADH-16; assay type: biochemical; details: 0.04 mg/mL enzyme, 0.25 mg/mL cofactor, 20 mM Tris HCl pH 6.5(red) or 9.0(ox), 25 C; FIG. 35, 36
Procedure: Similar to above, kinetic testing for both oxidation and reduction reactions was performed on various substrates using 2ADH-16. The conditions for these studies were as follows: 0.04 mg/mL enzyme, 0.25 mg/mL cofactor, 20 mM Tris HCl Buffer pH 6.5(red) or 9.0(ox), T=25 C, 100 uL total volume was used.

[2] = background statement, no test described; cited from earlier work
[3] = TBA assay of culture media for secreted alginate lyase; details: media of overnight BL21 culture, LB+2% alginate+0.1 mM IPTG; 1:1 with 0.8% TBA, 10 min at 99 degrees Celsius; FIG. 47
[4] = In vitro pyruvate formation from alginate with purified enzymes; details: ~5 ug purified enzyme with Atu3025, UxuA, KdgK, KdgA; 1% alginate or ~0.5% mannuronate; over night; FIG. 6B, 6C
Procedure: The reaction mixture contained 1% alginate or ˜0.5% mannuronate, ˜5 ug of purified Atu3026 (ADH12) or Atu3027 (ADH11), and ˜5 ug of purified oligoalginate lyase (Atu3025), UxuA, KdgK, and KdgA, 2 mM of ATP, and 0.6 mM of NADPH in 20 mM Tris-HCl pH7.0. The reaction was carried out over night and the pyruvate formation was monitored by the pyruvate assay kit (BioVision, Inc).

B1: 2ADH-16: secondary alcohol dehydrogenase isolated from Klebsiella pneumoniae subsp. pneumoniae MGH 78578, SEQ ID NO: 138 (protein)
chain: MTAFHNKSVLVLGGSRGIGAAIVRRFVADGASVVFSYSGSPEAAERLAAETGSTAVQADSADRDAVISLVRDSGPLDVLVVNAGIALFGDALEQDSDAIDRLFHINIHAPYHASVEAARRMPEGGRIIVIGSVNGDRMPLPGMAAYALSKSALQGLARGLARDFGPRGITVNVVQPGPIDTDANPENGPMKELMHSFMAIKRHGRPEEVAGMVAWLAGPEASFVTGAMHTIDGAFGA
modifications: Klebsiella pneumoniae subsp. pneumoniae MGH78578
For B1, which “oxidation and reduction of various substrates” value [1] is on record?
Its value is “capable of catalyzing both the oxidation and reduction of a wide variety of substrates”.

B2: BAL: benzaldehyde lyase (BAL) from Pseudomoas fluorescens, ThDP-dependent C—C ligase, SEQ ID NOS: 143-144 (protein, listed as Pseudomonas fluorescens)
chain: MAMITGGELVVRTLIKAGVEHLFGLHGAHIDTIFQACLDHDVPIIDTRHEAAAGHAAEGYARAGAKLGVAGHGGRGIYQCGHAHCQRLAGSQGRCIPHPGSGALRDDETNTLQAGIDQVAMAAPITKWAHRVMATEHIPRLVMQAIRAALSAPRGPVLLDLPWDILMNQIDEDSVIIPDLVLSAHGARPDPADLDQALALLRKAERPVIVLGSEASRTARKTALSAFVAATGVPVFADYEGLSMLSGLPDAMRGGLVQNLYSFAKADAAPDLVLMLGARFGLNTGHGSGQLIPHSAQVIQVDPDACELGRLQGIALGIVADVGGTIEALAQATAQDAAWPDRGDWCAKVTDLAQERYASIAAKSSSEHALHPFHASQVIAKHVDAGVTVVADGALTYLWLSEVMSRVKPGGFLCHGYLGSMGVGFGTALGAQVADLEAGRRTILVTGDGSVGYSIGEFDTLVRKQLPLIVIIMNNQSWGATLHFQQLAVGPNRVTGTRLENGSYHGVAAAFGADGYHVDSVESFSAALAQALAHNRPACINVAVALDPIPPEELILIGMDPFA
For B2, which “rate of benzoin formation from two benzaldehyde molecules” value [2] is on record?
Its value is 320 μmol (benzoin) mg (protein)^−1 min^−1.

B3: Vs24254: putative Vibrio splendidus protein similar to an alginate lyase, SEQ ID NO: 32; functional external alginate lyase (protein, listed as Vibrio splendidus)
chain: MNKPIFVVVLASLTYGCGGSSSSDSSDPSDTNNSGASYGVVAPYDIAKYQNILSSSDLQVSDPNGEEGNKTSEVKDGNFDGYVSDYFYADEETENLIFKMANYKMRSEVREGENFDINEAGVRRSLHAEISLPDIEHVMASSPADHDEVTVLQIHNKGTDESGTGYIPHPLLRVVWEQERDGLTGHYWAVMKNNAIDCSSAADSSDCYATSYNRYDLGEADLDNFTKFDLSVYENTLSIKVNDEVKVDEDITYWQHLLSYFKAGIYNQFENGEATAHFQALRYTTTQVNGSNDWDINDWKLTIPASKDTWYGSGGDSAAELEPERCESSKDLLANDSDVYDSDIGLSYFNTDEGRVHFRADMGYGTSTENSSYIRSELRELYQSSVQPDCSTSDEDTSWYLDDTRTNATSHELTASLRIEDYPNINNQDPKVVLGQIHGWKINQALVKLLWEGESKPVRVILNSDFERNNQDCNHCDPFSVELGTYSASEEWRYTIRANQDGIYLATHDLDGTNTVSHLIPWGQDYTDKDGDTVSLTSDWTSTDIAFYFKAGIYPQFKPDSDYAGEVFDVSFSSLRAEHN
With B3 as the molecule, how does the “TBA assay result (cleavage of alginate polymer in growth medium)” value [3] read?
Its value is “positive TBA assay result of pink color”.

B4: Vs24259: putative Vibrio splendidus protein similar to an alginate lyase, SEQ ID NO: 34; negative control in TBA assay (protein, listed as Vibrio splendidus)
chain: MKQITLKTLLASSILLAVGCASTSTPTADFPNNKETGEALLTPVAVSASSHDGNGPDRLVDQDLTTRWSSAGDGEWATLDYGSVQEFDAVQASFSKGNQRQSKFDIQVSVDGESWTTVLENQLSSGKAIGLERFQFEPVVQARYVRYVGHGNTKNGWNSVTGLAAVNCSINACPASHIITSDVVAAEAVIIAEMKAAEKARKDARKDLRSGNFGVAAVYPCETTVECDTRSALPVPTGLPATPVAGNSPSENFDMTHWYLSQPFDHDKNGKPDDVSEWNLANGYQHPEIFYTADDGGLVFKAYVKGVRTSKNTKYARTELREMMRRGDQSISTKGVNKNNWVFSSAPESDLESAAGIDGVLEATLKIDHATTTGNANEVGRFIIGQIHDQNDEPIRLYYRKLPNQETGAVYFAHESQDATKEDFYPLVGDMTAEVGDDGIALGEVFSYRIDVKGNTMTVTLIREGKDDVVQVVDMSNSGYDAGGKYMYFKAGVYNQNISGDLDDYSQATFYQLDVSHDQYKK
With B4 as the molecule, how does the “TBA assay result (cleavage of alginate polymer in growth medium)” value [3] read?
Its value is “little or no cleavage of the alginate polymer has occurred”.

B5: Atu3027: alcohol dehydrogenase isolated from Agrobacterium tumefaciens C58, polypeptide SEQ ID NO: 90 (protein)
chain: MRSELPEGFFGPREWARLNAVADIIPGFPHTDFDTANGAEALAEADILLAAWGTPSLTRERLSRAPRLKMLAYAASSVRMVAPAEFWETSDILVTTAASAMAVPVAEFTYAAIIMCGKDVFRLRDEHRTERGTGVFGSRRGRSLPYLGNHARKVGIVGASRIGRLVMEMLARGTFEIAVYDPFLSAEEAASLGAKKAELDELLAWSDVVSLHAPILPETHHMIGARELALMADHAIFINTARGWLVDHDALLTEAISGRLRILIDTPEPEPLPTDSPFYDLPNVVLTPHIAGALGNELRALSDLAITEIERFVAGLAPLHPVHKQDMERMA
modifications: Agrobacterium tumefaciens C58
Which “DEHU hydrogenase and mannuronate hydrogenase reactions in pyruvate formation from alginate” value [4] does the source give for B5 here?
The value was “capable of catalyzing both DEHU hydrogenase and mannuronate hydrogenase reactions”.
